Ends that are not written are not given here. Me3 = trimethyl-lysine; Me2 = dimethyl-lysine
B1: H3K27me2 (peptide)
chain: QLATKAARKSAPATG
modifications: dimethyl-Lys27 (mature numbering; K28 of precursor). Taken as the H3K27me2 peptide of the Figure 5C table; limits are mature 19-33 by convention for Eed binding peptides, not given

Biological target: ΔEed (Eed residues 77 to 441) (UniProt O75530 77-441)
Assay: ITC

ΔEed (Eed residues 77 to 441), sequence (O75530 77-441, stated change not applied): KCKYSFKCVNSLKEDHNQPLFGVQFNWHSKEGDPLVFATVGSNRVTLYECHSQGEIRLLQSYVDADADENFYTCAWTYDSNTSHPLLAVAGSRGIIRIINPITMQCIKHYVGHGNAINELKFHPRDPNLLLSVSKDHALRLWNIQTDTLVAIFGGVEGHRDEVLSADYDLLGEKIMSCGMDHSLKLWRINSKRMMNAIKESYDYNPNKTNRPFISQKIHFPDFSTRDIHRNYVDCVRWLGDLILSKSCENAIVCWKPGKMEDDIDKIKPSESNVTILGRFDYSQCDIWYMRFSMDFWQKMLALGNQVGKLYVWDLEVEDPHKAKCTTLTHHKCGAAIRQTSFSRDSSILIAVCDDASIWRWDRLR

Binder | Kd
RLQAQRK(Me2)FAQSQY [Jarid2-K116me2 peptide] | 10.4 µM
RLQAQRK(Me3)FAQSQY [Jarid2-K116me3 peptide] | 3.4 µM
B1 | 68 µM
QLATKAARKSAPATG (trimethyl-lysine at K27) [H3K27me3 peptide] | 36.4 µM

Source: article PMC4352895 (2015)
